Assay results as given in PMC9207296, “Photoacoustic imaging reveals mechanisms of rapid-acting insulin formulations dynamics at the injection site” (Molecular Metabolism, 2022).

How the values were obtained:
[1] = Photobleaching test of dye-labeled lispro in expired mouse ear (OR-PAM); format: physicochemical; details: 400 μM in Humalog formulation in expired mouse ear; 21 imaging sessions over 3 hours; 780 nm
Protocol: Before performing live animal experiments, we injected the dye-labeled lispro formulation in the ear of an expired mouse to study the progression of photoacoustic signals to assess photobleaching.
[picture] Figure S1: Photobleaching test of Cy7.5 dye-labeled lispro (400 μM) in Humalog formulation injected in a dead mouse ear. Over the course of 3 hours, 21 imaging sessions were performed and no decrease of photoacoustic signals were found. Scale bar = 500 μm.

[2] = OR-PAM quantification and compartmental kinetic modelling of injection-site absorption in mouse ear; format: in vivo; details: sulfo-cy7.5 dye without lispro, n = 3, result in words
Protocol: We used 34 gauge needles (207434, Hamilton) with microliter syringes to inject insulin volumes from 0.06 μL to 0.10 μL in the mouse ear. To perform the injection, the syringes were fitted onto a syringe dispenser (PB600, Hamilton), which enabled rapid and controlled injection. The needle was inserted in the mouse ear at an oblique angle (≤45°) and then the desired volume of the dye-labeled insulin lispro formulation was injected using the syringe dispenser. To perform 0.06 μL injections, a 1 μL syringe (80100, Hamilton) was used through which a minimum of 0.02 μL of liquid could be dispensed. To inject 0.1 μL volume, a 5 μL (7634-01, Hamilton) syringe was used. To perform 0.06 μL injection, the 1 μL syringe was fitted with a glass coupler (55752-01, Hamilton) and a luer adaptor (55753-01, Hamilton) to connect to the 34-gauge needle. The 5 μL syringe could be directly connected to the needle.
Mouse experiments were approved as per the IACUC regulations at Caltech. Hsd:Athymic Nude-Fox1^nu mice aged 6–10 weeks (Envigo) were used in all the photoacoustic experiments. The mouse body temperature was maintained at 37 °C during imaging. […]
Since the time required for taking each image is around 220 s, we consider the mid-point of time at which the imaging was started and ended as the imaging time-point. […] All the p values were calculated using unpaired two-sample t-tests. […]

Substance	photostability (photoacoustic signal) [1]	injection-site absorption of dye alone, Lyumjev versus Humalog excipient formulation [2]
sulfo-cy7.5 insulin lispro: insulin lispro acylated at the B-chain lysine B28 epsilon amino group with sulfo-cyanine7.5 NHS ester	no decrease in photoacoustic signals after 21 imaging sessions	
sulfo-cyanine7.5 [sulfo-cy7.5 dye]		absorbed at a faster rate in the Lyumjev formulation
